# Bridge positions count the residues as written; N and C are the ends. Square brackets hold non-standard residues; d marks the D form. Ends that are not written are not given here. NMeF = CN[C@@H](Cc1ccccc1)C(=O)O; pGlu = O=C1CC[C@@H](C(=O)O)N1; Sar = CNCC(=O)O
# Biological target: β-amyloid peptide β1-40 (polypeptide corresponding to the first 40 amino acids of β-amyloid)
# Assay: cell-based or functional assay
row,Binder,Therapeutic Efficacy (%)
1,FFGLM [Sub P (7-11)],41
2,RPKPQQFFGLM-NH2 [Substance P],100
3,"RPKPQQFFGLM-OH [Sub P, Free Acid]",53
4,RPKPQQFFGLX (nor-leucine at position 11) [[Nle^11]-Sub P],77
5,"[pGlu]QF[NMeF][Sar]LM (ends and bridges not checked) [[pGlu^5, Me-Phe^8, Sar^9]-Sub P (5-11)]",41
6,"RPKPQQFFGLM-OMe [Sub P, Methyl Ester]",71
7,QFFGLM [Sub P (6-11)],65
8,"RPCPQCFYPLM (disulfide 3-6; ends not checked) [[Cys^3,6, Tyr^8, Pro^9]-Sub P]",53
9,RPKPQQF [Substance P (1-7)],82

# From patent US5876948 (The Children's Medical Center Corporation, dated 1999)
